Measurements reported in patent US20150197559A1.
Numbering of substitutions follows the chain as printed.

Experiments:
[1] = biological target: BoNT/B4 (Clostridium botulinum); test: KinExA flow fluorimetry, IgG in solution
[2] = biological target: BoNT/B3 (Clostridium botulinum); test: KinExA flow fluorimetry, IgG in solution
[3] = biological target: BoNT/B2 (Clostridium botulinum); test: KinExA flow fluorimetry, IgG in solution
[4] = biological target: BoNT/B2 (Clostridium botulinum); test: flow cytometry, yeast-displayed scFv, soluble toxin
[5] = biological target: BoNT/B2 (Clostridium botulinum); test: flow cytometry, yeast-displayed Fab, soluble toxin
[6] = biological target: BoNT/B2 (Clostridium botulinum); test: flow cytometry, yeast-displayed Fab against yeast-displayed scFv

B1: 1B10.1 IgG (antibody, V domains shown)
VH: QVQLVESGGGVVQPGRSLRLSCAASGFTFSHYGMHWVRQSPGKGLEWVAVIWYDGRNPYYAASVKGRFTISRDNDKNTLYLQMNSLRAEDTAVYYCVKDLTRFHDTTFGVFEMWGPGTTVTVSS
VL: EIVLTQSPSFVSASVGDRVTITCRASQGISSWLAWYQQKPGKAPKLLIYAASSLQSGVPSRFSGSGSGTEFTLTISSLQPDDFATYYCQQYSSLYTFGQGTKVDIKR
**Q.** With B1 as the binder, how does the Kd [1] read?
**A.** Its Kd is 0.00047 nM.

**Q.** What about the Kd [2] of the same binder?
**A.** Its Kd is 1.2 nM.

**Q.** And the Kd [3]?
**A.** The Kd was 0.00031 nM.

B2: 1B18 IgG (antibody, V domains shown)
VH: EVQLVQSGGGLVQPGGSRRLSCAASGFYFNAYWMTWVRQAPGKGLEWVANINLDGTEIYYLDSVKGRFTVSRDNVKNSVFLQMSSLRVEDTAVYFCARLEWGGRNGWVSPWGQGTLVTVSS
VL: DVVMTQSPSSVSASVGDRVTITCRASQSISSYLNWYQQRPGKAPKLLIFAASSLQSAVPSRFSGSGSGTDFTLTISSLQPEDFATYYCQQSYSTPPTFGQGTKVEIKR
**Q.** With B2 as the binder, how does the Kd [1] read?
**A.** The Kd was 0.021 nM.

**Q.** What about the Kd [2] of the same binder?
**A.** Its Kd is 0.972 nM.

**Q.** What about the Kd [3] of the same binder?
**A.** Its Kd is 0.817 nM.

B3: B6 scFv (scFv)
scFv: QVQLVQSGAEVKKPGESLVISCKASGDKDTFTSFWIAWVRQMPGKGLEWMGIIYAGDSDTRYSPSFQGHVNISVDRSTNTAYLQWSSLKASDTAMYYCARHDSRYKYFYFGMDVWGQGTTVTVSSGGGGSGGGGSGGGGSDVVMTQSPSSLSASVGDRITITCQAGQDISNFLNWYQQKPGKAPKLLIRDASNLETGVPSRFSGGGSGTHFTFTISSLHPEDIATYFCQQYDNLPYTFGQGTKLEIK
**Q.** For B3, which Kd [4] is on record?
**A.** Its Kd is 1.77 nM.

B4: B11E8 scFv (scFv)
scFv: EVQLVQSGGGVVQPGRSLRLSCAASGFIFRTYGMHWVRQAPGKGLEWVAFVSSDGNNKFYSDSVKGRFTISRDNAKNTLYLQMNSLETEDTAMYYCAKDRYPIDCSGGSCFSYGMDVWGQGTTVTVSSGGGGSGGGGSGGGGSEIVLTQSPATLSVSPGERATLSCRASQSVSKFLAWYQQKRGQAPRLLIYGASTRATGIPARFSGSGSGTEFALTISSLQSEDFADYYCQQYDNWPITFGQGTRLEIK
**Q.** How did the Kd [4] turn out when B4 was run?
**A.** The Kd was 0.189 nM.

B5: 2B30 scFv (scFv)
scFv: EVQLVESGGGVVQPGRSLRLSCAASGFTFRRNAIHWVRQAPGKGLEWVAVISYDGVNKYYAASVKGRFAISRDNAKNTLFLQMNSLRPEDSAIYYCARDVSEYGDYVGHFDYWGQGTLVTVSSGGGGSGGGGSGGGGSSYELMQLPSASGTPGQRVSISCSGSSSNIGSNPVNWYQQLPGTAPKLLIYSNNHRPSGVPDRFSGSKSGTSASLAISGLQSEDEADYYCAAWDGSLNGHVVFGGGTKLTVL
**Q.** For B5, which Kd [4] is on record?
**A.** The Kd was 0.19 nM.

B6: 2B25.1 IgG (antibody, V domains shown)
VH: QVQLQESGPGLVKPSQTLSLSCSVSGASITSGTFYWSWIRQHPGKDLEWIGYIYYSGTTYYNPSLKSRVTLSVDTSKNQFSLKVTSLTAADTAVYHCARGVPIYDSSGTYRGTYFDYWGQGTLVTVSS
VL: ESVLTQPPSVSAAPGQKVTISCSGSSSNIGNNYVSWYQQLPGTAPKLLIYDNNRRPSGIPDRFSGSKSGTSATLGITGLQTGDEADYYCGTWDSSLSEVVFGGGTKVTVLG
**Q.** Which results are given for B6?
**A.** Kd [1]: 0.03 nM; Kd [2]: 0.0177 nM; Kd [3]: 0.0532 nM

B7: 1B22 IgG (antibody, V domains shown)
VH: QVQLQESGSRLVKPSQTLSLTCGVSGGSISSSSYSWSWIRQTPGKGLEWIGYIYHSGSTYYNPSLKSRVTMSVDKSRNQFSLNMSSVTAADTAVYYCARTAFYYENTGPIRCYLDFWGQGTLVTVSS
VL: DIQMTQSPSTLSASIGDRVTISCRASQSIQSWLAWYQQRPGEAPKLLIYSASTLQTGVPSRFSGSGSGTDFTLTISSLQPEDFATYYCQQYNSYPLTFGQGTKLEIK
**Q.** For B7, which Kd [1] is on record?
**A.** The Kd was 0.129 nM.

**Q.** And the Kd [2]?
**A.** Its Kd is 0.221 nM.

**Q.** What about the Kd [3] of the same binder?
**A.** Its Kd is 0.319 nM.

B8: B11 scFv (scFv)
scFv: QVQLLQSAGGVVQPGRSLRLSCAASGFIFRTYGMHWVRQAPGKGLEWVAFVSSDGNNKFYSDSVKGRFTIPRDNAKNTLYLQMNSLETEDTAVYYCAKDRYPIDCSGGSCFSYGMDVWGQGTTVTVSSGGGGSGGGGSGGGGSDIVMTQSPSTLSASVGDRVTVTCRASQSINSWLAWYQQKPGKAPKLLIYEASSLESGVPSRFSGSGSGTEFTLTISSLQPDDFATYYCQQYDSYWLTFGGGTKVEIK
**Q.** How did the Kd [4] turn out when B8 was run?
**A.** The Kd was 2.11 nM.

B9: 2B23 IgG (antibody, V domains shown)
VH: EVQLLESGGGLVQPGGSLRLSCAASGFTFSNYPMSWVRQAPGKGLAWVSSLTASGDNTFYADSVKGRFTISRDNSNNTLYLQMHSLRAEDTAVYYCAKALVGRYDISTGYYRPVMDSWGQGTLVTVSS
VL: DIQMTQSPPSLSASVGDRVTITCRTSQGFTSALAWYQQKPGEPPKLLIYDASKLESGVPSRFSGSGSGTNFALTISSLQPEDFATYFCQQSNSYPLTFGGGTKVEIKR
**Q.** With B9 as the binder, how does the Kd [1] read?
**A.** The Kd was 0.0552 nM.

**Q.** What about the Kd [2] of the same binder?
**A.** The Kd was 0.048 nM.

**Q.** What about the Kd [3] of the same binder?
**A.** Its Kd is 0.0453 nM.

B10: B11E8 Fab (Fab, V domains shown)
VH: EVQLVQSGGGVVQPGRSLRLSCAASGFIFRTYGMHWVRQAPGKGLEWVAFVSSDGNNKFYSDSVKGRFTISRDNAKNTLYLQMNSLETEDTAMYYCAKDRYPIDCSGGSCFSYGMDVWGQGTTVTVSS
VL: EIVLTQSPATLSVSPGERATLSCRASQSVSKFLAWYQQKRGQAPRLLIYGASTRATGIPARFSGSGSGTEFALTISSLQSEDFADYYCQQYDNWPITFGQGTRLEIKR
**Q.** How did the Kd [5] turn out when B10 was run?
**A.** The Kd was 0.166 nM.

B11: B11 Fab (Fab, V domains shown)
VH: B10 VH with E1Q, V5L, G8A, S71P, M93V
VL: DIVMTQSPSTLSASVGDRVTVTCRASQSINSWLAWYQQKPGKAPKLLIYEASSLESGVPSRFSGSGSGTEFTLTISSLQPDDFATYYCQQYDSYWLTFGGGTKVEIKR
**Q.** How did the fold higher affinity than the scFv [6] turn out when B11 was run?
**A.** Its fold higher affinity than the scFv is 1.46 fold.

B12: B11E8 IgG (antibody, V domains shown)
VH: B10 VH
VL: B10 VL
**Q.** Which results are given for B12?
**A.** Kd [2]: 0.0156 nM; Kd [3]: 0.0181 nM

B13: B12.1 IgG (antibody, V domains shown)
VH: QVNLRESGGGVVQPGRSLRLSCAASGFTFSSYALHWVRQTPGKGLEWVALISYDGSNKYYADSVKGRFTISRDNSKNMLYLQMNSLRAEDTAVYYCAKDRSHYGDYVGYLDYWGQGTLVTVSS
VL: AYVLTQPPSVSVAPGKTAAITCEGNNVGNKNVHWYQQRPGQAPVLVVHDDSDRPSGIPERFSGSNSGNTATLTINRVEAGDEADYYCQVWDSSSAQWVFGGGTKLTVLG
**Q.** Which results are given for B13?
**A.** Kd [1]: 0.625 nM; Kd [2]: 0.0462 nM; Kd [3]: 0.0162 nM
